Laboratory results: paper doi:10.1101/2021.01.25.428026

Tests used:
[1] = target: recombinant DJ-1 C53A mutant (human) (UniProt Q99497); assay: non-reducing SDS-PAGE
[2] = target: recombinant DJ-1 C46A mutant (human) (UniProt Q99497); assay: non-reducing SDS-PAGE

stoichiometry N [1]	stoichiometry N [2]	Substance
3	–	recombinant DJ-1 C53A mutant (from UniProt Q99497 1-189) (natural protein)
–	3	recombinant DJ-1 C46A mutant (from UniProt Q99497 1-189) (natural protein)
